Results published in the Human Domainome abundance scans (Beltran et al. 2025).

B1: FERM and PDZ domain-containing protein 4, residues 75 to 154; numbered along this chain, Q14CM0 (parent)
chain: APRKVEMRRDPVLGFGFVAGSEKPVVVRSVTPGGPSEGKLIPGDQIVMINDEPVSAAPRERVIDLVRSCKESILLTVIQP

Variants of: B1
Assay: abundance fitness (aPCA) (normalised: wild type 0, dead -1); higher = more abundant; growth selection in yeast, the domain comes from the species named
Settings: Homo sapiens

Abundance fitness of substitutions, site by site:
G34: Y -0.867, W -1.1, V -0.962
E37: K -0.176, Y -0.044, I -0.145, N -0.106, M -0.122, C -0.046, H -0.09, D -0.028, F -0.103, P -0.985, Q -0.034, T -0.126, G -0.173, L -0.235, V -0.057, R -0.211
G43: E -0.18, W -0.402, I -1.03, S -0.262, P -0.958, R -0.248, H -0.204, L -0.284, N -0.131, M -0.175, C -0.252, D -0.108, V -0.991, Q -0.227, F -0.256, T -0.424, Y -0.246
M48: P -0.917, F -0.01, W -0.152, G -0.025, T -0.015, S 0.008, N -0.095, L -0.072, C -0.003, R -0.046, A 0.044, V -0.127, H -0.121, E -0.028, I -0.154, Y -0.083, K -0.046, D -0.095
D44: Q -0.369, A -0.221, P -0.937, H -0.306, G -0.73, K -1.01, W -0.817, S -0.264, F -0.957, N -0.418, M -0.186, C -0.289, Y -0.697, E -0.173, R -1.01
P35: A -0.202, N -0.213, E -0.35, D -0.737, R -0.486, K -0.59, T -0.543, W -1.08, G -0.661, V -0.331, Y -0.708, Q -0.33, S -0.394, L -0.857, C -0.435, I -0.622, M -0.355
Q45: N -0.126, S -0.102, E -0.037, K -0.057, H -0.009, V -0.123, T -0.105, D -0.589, P -0.938, F -0.247, I -0.105, L -0.136, C -0.101, A -0.084, R -0.026, W -0.2
P53: E 0.007, N -0.005, K -0.003, S -0.002, R -0.038, L 0.004, G -0.079, D 0.034, V -0.012, A -0.037, F -0.124, T -0.043, Y -0.078, C -0.029, I 0.116, M -0.015, W -0.094, Q -0.035, H -0.03
D51: T -0.079, F -0.194, M -0.077, I -0.511, N -0.047, R -0.069, V -0.385, S -0.039, K -0.044, H 0.01, L -0.168, W -0.234, Y -0.145, E -0.016, P -0.821, A -0.087, Q -0.027, C -0.135
P42: G -0.237, T -0.058, R -0.124, W -0.477, N -0.069, D -0.064, V -0.048, S -0.093, L -0.104, Q -0.043, Y -0.276, I -0.082, E -0.024, A -0.036, H -0.155, M -0.154, K -0.108
L40: N -0.94, T -0.846, G -1.01, P -0.928, S -0.87, D -0.965, W -1.07, R -0.978, F -0.8, I -0.125, V -0.156, M -0.19, A -0.871, E -0.989, H -1.07, Y -1.02
I41: P -0.925, Y -0.011, M 0.03, Q -0.003, K -0.008, H 0.028, F 0.043, W -0.004, S 0.033, D -0.063, V -0.009, T 0.013, E 0.015, A 0.005, N 0.032, G -0.084, L 0.024, C -0.014
K39: P -0.679, Q -0.032, A -0.079, D -0.546, W -0.145, G -0.264, T -0.201, V -0.06, H -0.028, Y -0.068, I 0.005, M -0.045, R -0.03, E -0.135, L 0.005, S -0.119, C -0.036, F -0.036
I46: P -0.611, N -0.679, F -0.255, V -0.014, L -0.051, T -0.113, S 0.073, M -0.293
S36: E -0.866, C -0.051, H -0.741, K -1.1, D -0.826, Y -0.927, Q -0.81, F -0.742, L -0.867, N -0.606, R -1.07, M -0.567, V -0.668, G -0.05, A 0.032, T -0.477
N50: K -0.223, Y -0.162, W -0.173, F -0.145, M -0.187, S -0.185, I -0.607, L -0.361, G 0, T -0.597, H -0.11, V -0.695, E -0.054, D -0.035, P -0.919, C -0.2, A -0.143, Q -0.094
E52: R -0.053, N -0.048, L -0.026, S -0.102, F -0.083, P -0.861, Y -0.045, I -0.053, M -0.038, T -0.037, K -0.066, W -0.065, C -0.069, H -0.037, Q -0.012, G -0.321, D -0.071
I49: T -0.708, Q -0.941, V 0.006, A -0.581, M -0.529, L -0.111, C -0.267, N -0.847, H -0.676, G -0.887, R -0.868, P -0.928, Y -0.855, E -0.894, W -0.779, F -0.476, S -0.929, D -0.846
V47: K -0.114, C -0.032, L 0.012, W -0.128, A -0.112, N -0.175, M -0.03, R -0.192, F -0.118, G -0.426, I 0.018, H -0.06, D -0.084, T -0.01, Q -0.045, Y -0.019, S -0.098, E -0.083
V54: L -0.207, N -0.945, C -0.03, A -0.271, D -0.928, K -1.21, I -0.117, E -0.771, F -0.692, P -0.994, G -0.993, Q -0.647, S -0.627, H -0.942
G38: N -0.078, H -0.045, M -0.185, C -0.186, K -0.105, T -0.137, Y -0.142, I -0.651, D -0.061, V -0.526, P -0.54, F -0.096, W -0.274, S -0.124, Q -0.099, E -0.155, L -0.21
